This passage reports ELISA_avg results from patent publication US20250026849A1 (ARCELLX, published 2025).

T1: CD123 (Homo sapiens (Human), UniProt P26951 19-305, limits assumed)
T1 construct: The CD123 construct used in the ELISA is not described; also called CD123-Signal
T1 sequence: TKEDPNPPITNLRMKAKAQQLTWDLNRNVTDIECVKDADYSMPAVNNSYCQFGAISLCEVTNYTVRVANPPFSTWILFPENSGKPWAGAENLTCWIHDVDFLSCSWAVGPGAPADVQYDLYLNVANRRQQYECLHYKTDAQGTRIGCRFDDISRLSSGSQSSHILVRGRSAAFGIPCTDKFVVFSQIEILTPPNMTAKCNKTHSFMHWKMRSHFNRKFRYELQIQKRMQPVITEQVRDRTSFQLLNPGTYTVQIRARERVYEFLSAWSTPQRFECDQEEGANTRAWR

B1: D domain of SEQ ID NO: 580 (designed binder)
chain: MGSWVEFDDRLDAIWERLDALGGSEAELAWFEEQIAVFEHQLQDYKGKGNPEVEALNQEAEAIDLELKAYRHN
B2: D domain of SEQ ID NO: 592 (designed binder)
chain: MGSWTEFTQRLEAIVDRLFALGGSEAELAEFENSIADFEWDLQWYKGKGNPEVEALNREAVAIDNELWAYRHN
B3: D domain of SEQ ID NO: 594 (designed binder)
chain: MGSWNEFLLRLDAIEHRLFALGGSEAELAEFEWEIADFEDDLQWYKGKGNPEVEALVEEAEAIDVELVAYRHN
B4: D domain of SEQ ID NO: 585 (designed binder)
chain: MGSWYEFESRLEAIWWRLEALGGSEAELAQFEQYIADFEQHLQWYKGKGNPEVEALDWEADAIWLELQAYRHN
B5: D domain of SEQ ID NO: 562 (designed binder)
chain: MGSWHWFKEDLAMITDVLEALGGSEAELAAFESEIAVFEADLQYYKGKGNPEVEALRKEAAAIRDELQAYRHN
B6: D domain of SEQ ID NO: 598 (designed binder)
chain: MGSWFEFDQRLDAITFRLWALGGSEAELAEFEDVIALFEYHLQDYKGKGNPEVEALEVEAWAIFHELGAYRHN
B7: D domain of SEQ ID NO: 582 (designed binder)
chain: MGSWSEFDQRLEAIWNRLDALGGSEAELADFEREIAYFENQLQWYKGKGNPEVEALNNEAFAIVDELGAYRHN
B8: D domain of SEQ ID NO: 583 (designed binder)
chain: MGSWYEFDERLWAIWERLDALGGSEAELAHFEWVIADFENDLQWYKGKGNPEVEALEFEAEAIVTELHAYRHN
B9: D domain of SEQ ID NO: 596 (designed binder)
chain: MGSWEEFHWRLGAIDARLEALGGSEAELAWFEDGIADFEAILQDYKGKGNPEVEALDSEAVAIHHELWAYRHN
B10: D domain of SEQ ID NO: 590 (designed binder)
chain: MGSWEEFHERLDAIDERLEALGGSEAELAFFEDDIASFEDWLQWYKGKGNPEVEALSREADAINFELEAYRHN
B11: D domain of SEQ ID NO: 577 (designed binder)
chain: MGSWEEFDKRLDAITRRLMALGGSEAELAEFESTIAWFEWDLQEYKGKGNPEVEALDWEAYAIDYELGAYRHN
B12: D domain of SEQ ID NO: 564 (designed binder)
chain: MGSWTEFKGELAEIKWILEALGGSEAELAFFEDEIAAFEWDLQKYKGKGNPEVEALRKEAAAIRDELQAYRHN
B13: D domain of SEQ ID NO: 579 (designed binder)
chain: MGSWNEFDDRLLAIWGRLDALGGSEAELAFFEEQIAGFEDELQWYKGKGNPEVEALDQEAEAIEKELWAYRHN
B14: D domain of SEQ ID NO: 563 (designed binder)
chain: MGSWSWFQWDLAGIKDHLEALGGSEAELAEFESEIAYFEDELQWYKGKGNPEVEALRKEAAAIRDELQAYRHN
B15: D domain of SEQ ID NO: 576 (designed binder)
chain: MGSWEEFDVRLDAIFNRLWALGGSEAELAEFEFDIAWFEMDLQEYKGKGNPEVEALFDEAEAITNELVAYRHN
B16: D domain of SEQ ID NO: 573 (designed binder)
chain: MGSWYEFDDRLDAIAYRLNALGGSEAELAWFEWEIAEFELDLQWYKGKGNPEVEALVWEADAIEWELEAYRHN
B17: D domain of SEQ ID NO: 581 (designed binder)
chain: MGSWTEFDDRLFAIYWRLDALGGSEAELAWFEEVIAEFENDLQVYKGKGNPEVEALDDEAHAISIELEAYRHN
B18: D domain of SEQ ID NO: 572 (designed binder)
chain: MGSWSEFDSRLDAIAYRLFALGGSEAELAQFEWIIADFEEDLQMYKGKGNPEVEALFSEAYAIEIELNAYRHN
B19: D domain of SEQ ID NO: 588 (designed binder)
chain: MGSWEEFDTRLLAIFGRLGALGGSEAELALFEMLIAKFEDDLQNYKGKGNPEVEALSEEAFAIDHELGAYRHN
B20: D domain of SEQ ID NO: 578 (designed binder)
chain: MGSWYEFDHRLEAIYDRLWALGGSEAELAFFEFDIADFEWDLQSYKGKGNPEVEALFDEAAAIGHELLAYRHN
B21: D domain of SEQ ID NO: 570 (designed binder)
chain: MGSWYEFDHRLDAIYQRLWALGGSEAELAEFEYGIAEFEEYLQDYKGKGNPEVEALISEAWAIEWELSAYRHN
B22: D domain of SEQ ID NO: 586 (designed binder)
chain: MGSWEEFYMRLVAIHMRLRALGGSEAELAVFENYIAEFEEYLQYYKGKGNPEVEALTIEADAIGTELGAYRHN
B23: D domain of SEQ ID NO: 566 (designed binder)
chain: MGSWAEFKQRLAAIKTRLEALGGSEAELAAFMDEIMAFEWELWAYKGKGNPEVEALMNEAFAIDVELYAYRHN
B24: D domain of SEQ ID NO: 587 (designed binder)
chain: MGSWDEFYYRLVAITHRLHALGGSEAELAWFEDDIAGFEWDLQTYKGKGNPEVEALYKEAGAIGMELTAYRHN
B25: D domain of SEQ ID NO: 584 (designed binder)
chain: MGSWMEFDYRLEAIWMRLIALGGSEAELADFESSIADFEHHLQSYKGKGNPEVEALEWEAFAIGVELDAYRHN
B26: D domain of SEQ ID NO: 568 (designed binder)
chain: MGSWWEFDHRLTAIDTRLQALGGSEAELAEFESSIAEFEWWLQDYKGKGNPEVEALFAEAEAIYVELDAYRHN
B27: D domain of SEQ ID NO: 561 (designed binder)
chain: MGSWFQFKEFLAMITHNLEALGGSEAELAEFEHDIALFESELQQYKGKGNPEVEALRKEAAAIRDELQAYRHN
B28: D domain of SEQ ID NO: 575 (designed binder)
chain: MGSWEEFDQRLDAIDVRLYALGGSEAELAEFEFDIAAFEEWLQLYKGKGNPEVEALNMEAFAITDELCAYRHN
B29: D domain of SEQ ID NO: 574 (designed binder)
chain: MGSWFEFDERLDAIGSRLTALGGSEAELASFEFYIADFEEWLQQYKGKGNPEVEALEWEAFAIDEELGAYRHN
B30: D domain of SEQ ID NO: 569 (designed binder)
chain: MGSWWEFQFRLYAIDQRLLALGGSEAELAEFEQDIADFEWMLQDYKGKGNPEVEALMLEADAIEAELKAYRHN
B31: D domain of SEQ ID NO: 595 (designed binder)
chain: MGSWYEFNMRLGAIDDRLQALGGSEAELAWFEDMIAIFEDDLQIYKGKGNPEVEALEQEAAAIHQELWAYRHN
B32: D domain of SEQ ID NO: 565 (designed binder)
chain: MGSWFEFKWTLALIKQELEALGGSEAELADFEQEIAEFEWWLQTYKGKGNPEVEALRKEAAAIRDELQAYRHN
B33: D domain of SEQ ID NO: 589 (designed binder)
chain: MGSWREFDQRLWAIDWRLEALGGSEAELAMFEWMIATFEDDLQWYKGKGNPEVEALYREAFAIDWELDAYRHN
B34: D domain of SEQ ID NO: 571 (designed binder)
chain: MGSWYEFDMRLDAIWERLTALGGSEAELADFEQYIAEFERQLQDYKGKGNPEVEALFDEAWAIEDELYAYRHN
B35: D domain of SEQ ID NO: 567 (designed binder)
chain: MGSWAEFKQRLAAIKTRLEALGGSEAELAAFEWEIVAFFSELFAYKGKGNPEVEALRDEAIAIETELVAYRHN
B36: D domain of SEQ ID NO: 597 (designed binder)
chain: MGSWYEFYERLWAIDDRLWALGGSEAELAEFEDSIATFEPSLQMYKGKGNPEVEALVAEAWAIFDELAAYRHN
B37: D domain of SEQ ID NO: 600 (designed binder)
chain: MGSWYEFWDRLTAIEHRLWALGGSEAELAYFEDSIAHFEGSLQVYKGKGNPEVEALYKEAEAIEWELEAYRHN
B38: D domain of SEQ ID NO: 593 (designed binder)
chain: MGSWVEFIMRLDAIYERLDALGGSEAELAEFEWHIADFEDHLQWYKGKGNPEVEALFEEADAIWEELWAYRHN
B39: D domain of SEQ ID NO: 599 (designed binder)
chain: MGSWSEFWFRLDAIEDRLWALGGSEAELAEFEDNIALFEYSLQHYKGKGNPEVEALVKEANAIDDELGAYRHN
B40: D domain of SEQ ID NO: 591 (designed binder)
chain: MGSWNEFYERLEAIDRRLFALGGSEAELALFEWMIADFEDDLQMYKGKGNPEVEALINEAGAIGFELEAYRHN

This assay has as its target T1, CD123. The experiment in a line: ELISA. Details: unit not given here.
On to B1, for which the ELISA_avg came to 5.
B2 had an ELISA_avg of 3.9.
With B3 the figure was 3.2; with B4, 4.4; with B5, 5.2.
With B6 the figure was 3.2.
Then B7, with 3.4.
As for B8, the ELISA_avg worked out at 3.6.
Then B9, with 3.3; and B10, with 4.3.
With B11 the figure was 4.5.
Turning to B12, the ELISA_avg was found to be 8.2.
With B13 the figure was 4.1; with B14, 12.9.
For the molecule B15, the ELISA_avg came to 4.7.
With B16 the figure was 4.6; with B17, 6.4; with B18, 4.3.
For the molecule B19, the ELISA_avg is 6.7.
With B20 the figure was 4.5; with B21, 4.6; with B22, 4.4.
For the molecule B23, the ELISA_avg is 3.4.
Then B24, with 5.4; and B25, with 3.1; and B26, with 4.3.
B27 yielded an ELISA_avg of 3.1.
B28: the ELISA_avg is 3.6.
With B29 the figure was 3.8; with B30, 3.1; with B31, 3.8.
With B32 the figure was 4.9; with B33, 3.4.
With B34 the figure was 13.7; with B35, 3.6.
As for B36, the ELISA_avg stood at 3.6.
With B37 the figure was 4.4; with B38, 6.4.
With B39 the figure was 4.5; with B40, 5.2.
